The text below walks through data of paper PMC8670446.

The test concerns the target His-tagged luciferase, heat-aggregated on the BLI sensor [luciferase: P08659]. As to the kind of experiment: BLI; protein aggregate immobilised on the sensor (His-tagged luciferase on Ni-NTA); Ssa1 variant together with Sis1 WT in solution, 1 µM each unless specified differently; buffer A (25 mM Hepes-KOH pH 8.0, 75 mM KCl, 15 mM MgCl2) with 2 mM DTT and 5 mM ATP; the signal is that of both chaperones.

Sequence of His-tagged luciferase, heat-aggregated on the BLI sensor [luciferase: P08659] (P08659 whole entry): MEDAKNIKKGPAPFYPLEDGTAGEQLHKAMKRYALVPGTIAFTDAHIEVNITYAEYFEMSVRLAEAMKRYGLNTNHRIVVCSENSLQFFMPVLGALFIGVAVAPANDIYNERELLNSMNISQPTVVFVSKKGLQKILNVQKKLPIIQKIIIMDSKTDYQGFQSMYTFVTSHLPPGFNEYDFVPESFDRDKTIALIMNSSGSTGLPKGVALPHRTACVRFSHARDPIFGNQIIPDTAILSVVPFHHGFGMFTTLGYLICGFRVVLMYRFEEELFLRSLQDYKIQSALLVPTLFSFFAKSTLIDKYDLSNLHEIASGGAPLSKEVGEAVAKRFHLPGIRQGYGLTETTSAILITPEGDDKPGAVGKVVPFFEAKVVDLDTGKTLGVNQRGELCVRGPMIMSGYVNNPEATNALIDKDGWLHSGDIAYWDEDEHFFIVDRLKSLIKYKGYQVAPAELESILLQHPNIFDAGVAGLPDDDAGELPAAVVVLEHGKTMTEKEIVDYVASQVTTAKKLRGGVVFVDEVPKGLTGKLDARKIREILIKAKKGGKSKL
Sequence of Ssa1 (P10591 whole entry): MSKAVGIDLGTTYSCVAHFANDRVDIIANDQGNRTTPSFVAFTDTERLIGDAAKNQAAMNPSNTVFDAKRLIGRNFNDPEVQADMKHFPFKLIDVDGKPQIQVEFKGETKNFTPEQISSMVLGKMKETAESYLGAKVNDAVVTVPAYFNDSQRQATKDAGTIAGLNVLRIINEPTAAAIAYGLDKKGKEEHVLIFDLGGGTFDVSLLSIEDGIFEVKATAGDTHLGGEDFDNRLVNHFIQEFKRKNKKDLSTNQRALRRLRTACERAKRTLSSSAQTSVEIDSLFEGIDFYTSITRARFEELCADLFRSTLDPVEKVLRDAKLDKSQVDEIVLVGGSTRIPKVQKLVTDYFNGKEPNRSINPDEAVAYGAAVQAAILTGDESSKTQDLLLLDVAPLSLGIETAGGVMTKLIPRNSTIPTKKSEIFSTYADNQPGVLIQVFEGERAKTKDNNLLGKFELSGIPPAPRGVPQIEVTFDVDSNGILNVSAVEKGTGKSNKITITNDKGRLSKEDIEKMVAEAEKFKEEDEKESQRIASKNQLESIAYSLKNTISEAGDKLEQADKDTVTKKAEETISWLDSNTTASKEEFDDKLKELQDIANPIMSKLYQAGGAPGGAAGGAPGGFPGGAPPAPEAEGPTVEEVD

Take “Ssa1 (from UniProt P10591 1-642) (natural protein)”: the BLI layer thickness (Sis1 and Ssa1 together) is 7 nm.
